Assays:
[1] = molecular target: T1, proline dehydrogenase (PruB) (Mycobacterium tuberculosis, UniProt O50444); assay: […]; added FAD makes little difference to activity; type: binding
T1 construct: gene Rv1188

[2] = test system: CC1=C(CCC(C)C)C(=O)c2ccccc2C1=O; assay: purified protein; conditions: FAD; pH 7.0; 25.0 °C
O=C(O)[C@@H]1CCCN1 = assay: purified protein; conditions: FAD; pH 7.0; 25.0 °C
[3] = test system: COC1=C(OC)C(=O)C(CC=C(C)C)=C(C)C1=O; assay: purified protein; conditions: FAD; pH 7.0; 25.0 °C
[4] = test system: CC(C)=CCC/C(C)=C/CC1=C(C)C(=O)c2ccccc2C1=O; assay: purified protein; conditions: FAD; pH 7.0; 25.0 °C
[5] = test system: CC(C)=CCC1=C(C)C(=O)c2ccccc2C1=O; assay: purified protein; conditions: FAD; pH 7.0; 25.0 °C

T1 sequence (O50444 1-329): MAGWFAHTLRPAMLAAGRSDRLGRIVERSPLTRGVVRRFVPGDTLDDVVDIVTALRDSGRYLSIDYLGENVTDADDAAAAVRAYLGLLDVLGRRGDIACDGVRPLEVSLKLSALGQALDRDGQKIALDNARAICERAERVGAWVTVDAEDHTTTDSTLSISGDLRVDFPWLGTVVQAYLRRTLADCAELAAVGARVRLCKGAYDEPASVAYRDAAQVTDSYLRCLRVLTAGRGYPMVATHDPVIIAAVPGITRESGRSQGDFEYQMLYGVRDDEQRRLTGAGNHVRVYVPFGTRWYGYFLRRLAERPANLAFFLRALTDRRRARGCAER

| Compound | co-purification with the enzyme (yellow protein); added FAD makes little differen [1] | Km [2] [µM] | Km (O=C(O)[C@@H]1CCCN1) [µM] | kcat (O=C(O)[C@@H]1CCCN1) [s⁻¹] | kcat/Km (O=C(O)[C@@H]1CCCN1) [M⁻¹ s⁻¹] | Km [3] [µM] | kcat [3] [s⁻¹] | kcat/Km [3] [M⁻¹ s⁻¹] | Km [4] [µM] | Km [5] [µM] |
| --- | --- | --- | --- | --- | --- | --- | --- | --- | --- | --- |
| Cc1cc2nc3c(=O)[nH]c(=O)nc-3n(C[C@H](O)[C@H](O)[C@H](O)COP(=O)(O)OP(=O)(O)OC[C@H]3O[C@@H](n4cnc5c(N)ncnc54)[C@H](O)[C@@H]3O)c2cc1C [FAD] | the addition of FAD to the assay buffer resulted in little difference in activity, confirming the copurification |  |  |  |  |  |  |  |  |  |
| proline dehydrogenase (PruB) (Mycobacterium tuberculosis H37Rv) |  | 46 ± 13 | 2500 ± 300 | 1.7 | 690 | 9.7 ± 1.4 | 2.3 | 230000 | 12 ± 0.66 | 23 ± 3.2 |

From PMC10537722, “Proline Dehydrogenase and Pyrroline 5 Carboxylate Dehydrogenase from Mycobacterium tuberculosis: Evidence for Substrate Channeling” (Pathogens, 2023)
